# B1: FAM53C (recombinant) (natural protein, UniProt Q9NYF3 1-392, looked up)
# chain: MITLITEQLQKQTLDELKCTRFSISLPLPDHADISNCGNSFQLVSEGASWRGLPHCSCAEFQDSLNFSYHPSGLSLHLRPPSRGNSPKEQPFSQVLRPEPPDPEKLPVPPAPPSKRHCRSLSVPVDLSRWQPVWRPAPSKLWTPIKHRGSGGGGGPQVPHQSPPKRVSSLRFLQAPSASSQCAPAHRPYSPPFFSLALAQDSSRPCAASPQSGSWESDAESLSPCPPQRRFSLSPSLGPQASRFLPSARSSPASSPELPWRPRGLRNLPRSRSQPCDLDARKTGVKRRHEEDPRRLRPSLDFDKMNQKPYSGGLCLQETAREGSSISPPWFMACSPPPLSASCSPTGGSSQVLSESEEEEEGAVRWGRQALSKRTLCQRDFGDLDLNLIEEN
# notes: FAM53C; also called C5ORF6; source: E. coli BL21 (DE3), purified (Ni-NTA, TEV cleavage, Q Sepharose, Superdex 75)
# Target: T1, DYRK1A (recombinant, N-terminally biotinylated) (UniProt Q13627 1-763, biotin on the N-terminus (sortase labelling with a synthetic biotin-LPETGG peptide onto the N-terminal glycine left after TEV cleavage))
# T1 construct: DYRK1A; also called Dual-specificity Tyrosine Phosphorylation-regulated Kinase 1 A; biotinylated DYRK1A; not shown: GST, N-terminal, cleaved; biotin-LPETGG peptide (sortase-ligated), N-terminal, kept
# Assay: BLI; Octet-RED96e; 200 nM biotinylated DYRK1A loaded on streptavidin biosensor tips, dipped into FAM53C analyte at varied concentrations; 25 mM Tris pH 8.0, 150 mM NaCl, 1 mM DTT, 2 mg/mL BSA, 0.2% Tween; double reference-subtracted; rates from a 1:1 model, KD from steady-state analysis
# Conditions: both partners purified
binder,measurement,value
B1,Kd,3.3 ± 0.5 mM

# — PMC13132546, “The FAM53C/DYRK1A axis regulates the G1/S transition of the cell cycle” (eLife, 2026)
